From article PMC3924863 (Cancer research, 2013)

Columns and labels:
[1] = target: recombinant monomeric cynomolgus monkey HER3 extracellular domain (cynomolgus monkey); test: solution equilibrium titration
[2] = target: T1, recombinant monomeric human HER3 extracellular domain (human, UniProt P21860); test: solution equilibrium titration
[3] = target: recombinant monomeric rat HER3 extracellular domain (Rattus norvegicus, UniProt Q62799); test: solution equilibrium titration
[4] = target: recombinant mouse HER3 extracellular domain (Mus musculus, UniProt Q61526); test: solution equilibrium titration
[5] = target: Fc-tagged EGFR extracellular domain (Homo sapiens (assumed), UniProt P00533); test: ELISA
[6] = target: Fc-tagged HER2 extracellular domain (Homo sapiens (assumed), UniProt P04626); test: ELISA
[7] = target: Fc-tagged HER4 extracellular domain (Homo sapiens (assumed), UniProt Q15303); test: ELISA
[8] = target: T1, recombinant monomeric human HER3 …; test: ELISA
[9] = target: isolated HER3 domains D3-4 (Homo sapiens, UniProt P21860); test: ELISA

Binder	Kd [1] [nM]	Kd [2] [nM]	Kd [3] [nM]	Kd [4] [nM]	binding result [5]	binding result [6]	binding result [7]	binding result [8]	binding result [9]
LJM716 (antibody, V domains shown) VH: EVQLLESGGGLVQPGGSLRLSCAASGFTFSSYAMSWVRQAPGKGLEWVSAINSQGKSTYYADSVKGRFTISRDNSKNTLYLQMNSLRAEDTAVYYCARWGDEGFDIWGQGTLVTVSS VL: DIQMTQSPSSLSASVGDRVTITCRASQGISNWLAWYQQKPGKAPKLLIYGASSLQSGVPSRFSGSGSGTDFTLTISSLQPEDFATYYCQQYSSFPTTFGQGTKVEIK	0.043	0.032	0.057	0.037	no binding	no binding	no binding		
MOR09825 Fab (Fab, V domains shown) VH: QVQLVESGGGLVQPGGSLRLSCAASGFTFSSYAMSWVRQAPGKGLEWVSAINSQGKSTYYADSVKGRFTISRDNSKNTLYLQMNSLRAEDTAVYYCARWGDEGFDIWGQGTLVTVSS VL: DIQMTQSPSSLSASVGDRVTITCRASQGISNWLAWYQQKPGKAPKLLIYGASSLQSGVPSRFSGSGSGTDFTLTISSLQPEDFAVYYCQQYSSFPTTFGQGTKVEIK								binds	no binding
